Article PMC3273827

Target: T1, La(4-325) (Homo sapiens, UniProt P05455 4-325)
T1 sequence: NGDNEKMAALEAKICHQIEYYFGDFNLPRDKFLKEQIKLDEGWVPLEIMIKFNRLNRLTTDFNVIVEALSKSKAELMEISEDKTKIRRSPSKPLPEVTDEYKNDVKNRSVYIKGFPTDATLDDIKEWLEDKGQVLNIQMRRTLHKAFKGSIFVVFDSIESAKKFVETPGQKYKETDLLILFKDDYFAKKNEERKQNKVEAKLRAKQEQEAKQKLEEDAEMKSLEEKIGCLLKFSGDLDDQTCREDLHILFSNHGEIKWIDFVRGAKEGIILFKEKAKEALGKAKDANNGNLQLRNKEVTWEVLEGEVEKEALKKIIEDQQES
Assay: ITC

## ACCUAACCACCACUACCACCUCCCACA (ssRNA) [27-mer ssRNA]
  binding result: no binding
